# Measured values: the DeepSol protein solubility set
# Assay: soluble on expression in E. coli; label from the status in PepcDB or PDB records
row,Sequence,soluble on expression in E. coli
1,MHHHHHHAIGYVWNTLYGWVDTGTGSLAAANLTARMQPISHHLAHPDTKRRFHELVCASGQIEHLTPIAAVAATDADILRAHSAAHLENMKRVSNLPTGGDTGDGITMMGNGGLEIARLSAGGAVELTRRVATGELSAGYALVNPPGHHAPHNAAMGFCIFNNTSVAAGYARAVLGMERVAILDWDVHHGNGTQDIWWNDPSVLTISLHQHLCFPPDSGYSTERGAGNGHGYNINVPLPPGSGNAAYLHAMDQVVLPALRAYRPQLIIVGSGFDASMLDPLARMMVTADGFRQMARRTIDCAADICDGRIVFVQEGGYSPHYLPFCGLAVIEELTGVRSLPDPYHEFLAGMGGNTLLDAERAAIEEIVPLLADIR,soluble
2,MAKIYYDEDASLDILKDKVIAILGYGSQGHAHALNLRDSGLNVIIGLHEGSRSREKAKADGFEVYTPREAAKRADIIMFLIPDTVQPEVYKNEVEPELNSSKTLAFAHGFNIHFRQIVPPKDVDVFMVAPKGPGHLVRWMYTEGKGVPALVAIHQDASGTCKDKALAYAKGIGATRAGVIETTFKEETETDLFGEQMVLCGGVTALIKAGFETLVNAGYQPEVAYFECLHELKLIVDLIYEHGISGMRYSISDTAKYGDVTRGERIYKVVKPVMEKTLEEIQKGEFAREWILENKAGRPVYYALLERDREHLVEKVGEELRKMMPWLGKKELK,soluble
3,MGSDKIHHHHHHMKISEFEGPLDLLLHLIRQNKMDIYDIPIAAITQQYLDYLHSMRALKLDIAGDYLVMAATLMTIKSRFLLPQPEPDEMDEDNEDDDPRDSLVAELLAYKVYQEAAGELREKEQARHQHFTREAMLVPADLSAPKLTAGITLDDLQAAFRQLVAKRRRVRPLTKTVVAETINIDERMTQITTQLQHQPQGLDFADLFTVSASDEMLVTTFMAVLELTKQDQVALQQAEPLSPIHLYLRQDEQHDEH,not soluble
4,MHHHHHHSSGVDLGTENLYFQSMMQKLVVTRLSPNFREAVTLSRDCPVPLPGDGDLLVRNRFVGVNASDINYSAGRYDPSVKPPFDIGFEGIGEVVALGLSASARYTVGQAVAYMAPGSFAEYTVVPASIATPVPSVKPEYLTLLVSGTTAYISLKELGGLSEGKKVLVTAAAGGTGQFAMQLSKKAKCHVIGTCSSDEKSAFLKSLGCDRPINYKTEPVGTVLKQEYPEGVDVVYESVGGAMFDLAVDALATKGRLIVIGFISGYQTPTGLSPVKAGTLPAKLLKKSASVQGFFLNHYLSKYQAAMSHLLEMCVSGDLVCEVDLGDLSPEGRFTGLESIFRAVNYMYMGKNTGKIVVELPH,soluble
5,MNFLLILTLISIIVRSRQENASMDPCNDFYDYVCTNDTRSITKLNFASLFDDREILKPNISFPNNGTYIALDQILEPDRLMKWYMTVKSLDTATVDLEYFFETHYEYISKKNDSEKFSFAVETLENVNLTLTNIFYNSLYANIKVLNQLNLPAAEENKFLHHISNLLKNNTIEEIWSSSLSNKSKKVLDEELNNSKVFFGLLDYNNVTMLEETKLVYETEYYRLKSLLSSDDLDTEIAEKILRLGAIDTATKYLAKRIPGYEPEFLFSAFASNMENEAFKHNSAIYAGIVTRSDLQQPMLAIADTVSVLAHELMHFVYPSGTELLTPNVTKAAKKCTQDEVKRMGDSDVVKPIDGWFSKKVTHEDLANIMGLRMVMKMVARKSASEEQLKNALETLLSGLCIQGKPKNSILPHHHPFEISINTAVRQYPLFSSLYGCRLGDRMFAEAEQFCKPLGGEVNLEDYKIKNDTEDIGGFFTYIMDTANAFNFSFRN,not soluble
6,MSLHRSEKMKEIKEAYQQCGQIVGEYAPACFKALSYLPLKQRQASWAVLSFCHTAASADEKVLPAFEAKADHVYQRTNNGKQHLWKAFDHAYRTFTLESEPFREFIAAQKEDAKPYDDLDELLMYAYRTGGAAGLMLLPILTRRKQDQLKQAAVSLGLAIQLVRFLSDLGTDQQKNRIPRQVMQQFGYTEADLQKGTVNKAFTMTWEYIAFEAEAYLEECQDALPLFPQYSQKTVKAALHLHRAVLEKIRAKQHDVFQYHFALTETEVKQILSDIEGHHHHHH,soluble
7,CKYEGDAQKRLAIRPFPAEFVETVTLRDGQPILLRPILPEDEPLHAQFINSVSKEDLYKRFFSEVGEFNHEALANFTQIDYDREMAFVAVAFDKSGPSIIGVARALITPDNSDAEFAILVRSDLKGKGLGKILMEKIISYCKIKGTKQMSGMTMPTNRGMLMLAQRLGFEVDVQFADGTADMVLPLN,not soluble
8,MNVDARVGVAVDGAQSALNTATTVHSSVVMTQIKPQAKLGTFQNLLAGGIAGAISKTCTAPLARLTILFQLQGMQSEGAVLSRPNLRREASRIINEEGYRAFWKGNLVTVVHRIPYTAVNFYAYEKYNLFFNSNPVVQSFIGNTSGNPIVHFVSGGLAGITAATATYPLDLVRTRLAAQRNAIYYQGIEHTFRTICREEGILGLYKGLGATLLGVGPSLAINFAAYESMKLFWHSHRPNDSDLVVSLVSGGLAGAVSSTDDKLFDAHNYVATYPLDLVRRRMQVEGAGGRARVYNTGLFGTFKHIFKSEGFKGIYRGILPEYYKVVPGVGIVFMTYDALRRLLTSLPD,soluble
9,MKNICFINGSPRSKKANSTLYLNLIDKSLDSKNYTKYYIDTTSSIKGDLESTFKTLLDADYIILAFPLYVYSMPSLLVRFLEDYYIYLKNKDTISQKTNLYAVVNCGFPDAKMNVEALKIVFNCCKKLNINFRFGIGIGAGEFVNFSKNNPLLNKLSSCVYKSINKITYDIENQVSIEINNIFVNPKIPRRLFFIFGHIFWKKWAKRNGIKISALFDKPLEHHHHHH,not soluble
10,MASWSHPQFEKGASLDSPTFGCTDSPVRRERGQKAVFCGLTSIVWLHRKMQDAFFLVVGSRTCAHLLQAAAGVMIFAEPRFGTAVLEEQDLAGLADAHKELDREVAKLLERRPDIRQLFLVGSCPSEVLKLDLDRAAERLSGLHAPHVRVYSYTGSGLDTTFTQGEDTCLAAMVPTLDTTEAAELIVVGALPDVVEDQCLSLLTQLGVGPVRMLPARRSDIEPAVGPNTRFILAQPFLGETTGALERRGAKRIAAPFPFGEEGTTLWLKAVADAYGVSAEKFEAVTAAPRARAKKAIAAHLETLTGKSLFMFPDSQLEIPLARFLARECGMKTTEIATPFLHKAIMAPDLALLPSNTALTEGQDLEAQLDRHEAINPDLTVCGLGLANPLEAKGHATKWAIELVFTPVHFYEQAGDLAGLFSRPLRRRALLNGGAA,soluble
11,DLYDDDDKDPTLMKISRGLLKTILEAAKSAHPDEFIALLSGSKDVMDELIFLPFVSGSVSAVIHLDMLPIGMKVFGTVHSHPSPSCRPSEEDLSLFTRFGKYHIIVCYPYDENSWKCYNRKGEEVELEVVEKD,soluble
12,MGSDKIHHHHHHMSTNISWTDETINPIVGCSRISAGCQNCYASTAAASARLQQFPQYQKVKDWNGTVEFAESALLKPLSWKKPKRIFVCSMSDLFHENVPDQWRDRVFGIMAAAHWHIFQVLTKRPLNALKYFQNFNLAQRIKDAGNLVCKPELPLKNVWFGVTCENQEMADKRIPILLQIPAKVRFLSCEPLLEEIDLSEVFGLYEYEEGKFALKVGSRWESSPDWVIVGGESGKDARVCHIDWVRSLTRQCQAAEVPVFVKQLGSNCIESLPYIAGVPSTDYQFKTSDRKGGDISEFPEDLQVRKFPDIHKTR,not soluble
13,GPGSMVRIRSLAKELRQLELQKQTASLPPPRAASSDDVLDDATRSATSSRKPEAPSCSSSPRDGDILTNAAHASTTAEAEAVPSSSPASRTVAAAEPQPTSAFPLSQLSLSSPDGAHNRSRNSLYSLGGSRFNILLGGSHGDGGACRKSQVRKATRACASGGGKNGAATATATQVPQRRGEAGGSSLLEKGKDGEVVANPAPPLGTSSGIPTRPPFKRLLAQPFSHVLVCDFEATCASGSVHYPHEIIEFPVVVLDTATLRIVAEFHRYVRPLRNPKLTAFCTELTGITQEMVDVADPLPTVVAQFQDWLKTEVYPLCWMWARHYGPNRLSHNLKSEQRRFVYDEHTDAAKANTSAEAMVCMATDGPWDMRRFMHQCSVLRDGVDFPPVCYRYINVRHSYSDHFKCRQAKLTHMLKKMSMSFEGRRHSGIDDTRNIARVLAELFARGYRVHHVSTITYAHRGDAFLESNRAAQELLSEFGETDETHTSKHANAHKGGGRQRGVKRA,not soluble
14,MDWEKVGLKMGLEIHQQLDTESKLFCPCRTELTDSEPDHDIVRNLRPTQSELGKFDRAAFEEAMRKLHFHYENYHEETCLVEADEEPPHPLNPEALEIAVTIALLLNMRVVDEFHTMRKQVIDGSNTGGFQRTGLVATDGHLETPQGTVKIENLCLEEDAARRIRETGDGVVFRLDRLGIPLVEITTDPSMSDPQQLREVAYQIGQILRSTRVKRGLGTIRQDLNISIRDGARVEVKGVQDLDLIPEIVEREVKRQLSLVEIRDTLQERGAVVEDKIFDVSEVFADTESRIISSAESVLAVKLRGFDGLIGVEIQPGRRLGTEMADYAKKRGVSGIFHTDELPAYGITEEEVRGLRDAVGASQGDAVVMVAHERVTAENALREVIRRAEMAIQGVPEETRKALPDGNTQYLRPLPTSSRMYLETDIPLFRIEDDLLEGIRRNLPELPSEKKERIMRDYGLSEDLASQLVKRNLVDEFEALTEFRVDTTVIASLLAYTLRELRREGHDVDGLGLDELRDAIKLLEVGKISKDALRDIVACMADEGLAAEDAARKLNLLLLAEDEIESIIQEIVEGNLDMISERGMGAMGPLMGQAMGRLRGRADGKVVNRILREKIQERL,soluble
15,MNSCNRLPCAHEVLAVFAHPDDESFGLGAVLGDFTAQGTRLRGLCFTHGEASTLGRTDRNLGEVRREELAAAAQVLGVDHVQLLAYPDNGLAQIPLNELTQRVVDALAGADLLLVFDDNGVTGHPDHRRATEAALAAASTPSIPVLAWALPQPIADRLNAEFSASFGGRGHGHLDIMIEVDRSRQLAAIGCHFTQSADNPVLWRRLELLGDREYLRWLRRSVP,soluble
16,SLDARLWLERIRELPIPDGIRIMNVCGGHERSISMAGLRTALPPAIRLIPGPGCPVCICPEEDIYQAIRLGLEGEAVVATFGDMLRVPVNLGRQAVRTLEQAKAAGADIRPIASPIEARIIAEKAAGKPVVLFAVGFETTMAPVAALMAEGLPDNLYILCSGRLTWPAVKLLLDSDECVLDALVAPGHVATVMGPEEWAFVADDYRLPVAIAGFTPASLLRAIHSTIVQWLEETPRLDNCYPEAVKPGGNPKAREFLDRSFDVAAGNWRGIGPIAASAYALKPGFAAHDARLHFPDYDAGDRRHAGEMPAGCDCARVVLGRIQPDECRIYGKPCSPRSPVGPCMVSDEGACRIWWAAGVRKDSAAA,not soluble
17,MSTFSFIIVNNEQVRIHDIQGKSHMSPYNGKKVNNVEGVVTALDKNGFYIEDNQPDNDPATSEGMYVYKKDANVAVGDLIQVDGVVEEYVGPGYAERFETDLTTTEIKASRVVVIAKDQSLPAPIVLGENGVKIPDQIIDNDAFGLFDPNEDAIDFYESIEGMRVTMPTPKVIAPQKNGNLYVTVKNGGDKIVTQYGTPLLDENQLNPERLSVKVPRDYVAKVGDTFTGDITGVVGYDYGSFRISPITELPAVVDGGFKQVGANIQPRLDKLTVATYNIENFSANKKETTDEKVKALAYSIKYNLKMPDIIGVEEMQDNNGSINDLEHHHHHH,not soluble
18,VLGAIENVEIADIKQAFTARIDTGATTSSLNAVDLQEFERNGSQWVRFHLVNQDVKADDGKLEWITAPVIRNVKIRQATADDAERRPVVELWIKLGAIHEKVQFTLADRSHMTHSVLLGREFIQDIAVVDVSKEFVQSKK,soluble
